Source: IntAct's records for PubMed 8940095

Biological target: pdli5_rat Pdlim5 (UniProt Q62920)
Sequence (Q62920 whole entry): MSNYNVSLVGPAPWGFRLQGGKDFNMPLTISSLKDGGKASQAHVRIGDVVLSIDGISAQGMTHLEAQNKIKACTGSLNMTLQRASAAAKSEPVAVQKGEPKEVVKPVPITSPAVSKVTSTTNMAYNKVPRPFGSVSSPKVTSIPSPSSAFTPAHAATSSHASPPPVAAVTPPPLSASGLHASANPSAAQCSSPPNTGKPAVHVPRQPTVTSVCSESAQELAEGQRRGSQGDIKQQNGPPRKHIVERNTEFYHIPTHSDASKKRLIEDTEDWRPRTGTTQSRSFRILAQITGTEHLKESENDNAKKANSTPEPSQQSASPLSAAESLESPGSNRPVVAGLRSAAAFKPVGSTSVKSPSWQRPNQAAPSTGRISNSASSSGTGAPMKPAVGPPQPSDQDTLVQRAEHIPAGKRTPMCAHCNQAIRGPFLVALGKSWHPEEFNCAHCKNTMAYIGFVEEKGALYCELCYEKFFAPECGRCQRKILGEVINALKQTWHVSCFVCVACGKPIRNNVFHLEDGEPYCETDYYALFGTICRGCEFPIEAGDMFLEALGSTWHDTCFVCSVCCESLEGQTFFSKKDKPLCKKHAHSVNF

Sequence of Protein kinase C beta type (Rattus norvegicus (Rat)), P68403-1 K371M (P68403 whole entry K371M): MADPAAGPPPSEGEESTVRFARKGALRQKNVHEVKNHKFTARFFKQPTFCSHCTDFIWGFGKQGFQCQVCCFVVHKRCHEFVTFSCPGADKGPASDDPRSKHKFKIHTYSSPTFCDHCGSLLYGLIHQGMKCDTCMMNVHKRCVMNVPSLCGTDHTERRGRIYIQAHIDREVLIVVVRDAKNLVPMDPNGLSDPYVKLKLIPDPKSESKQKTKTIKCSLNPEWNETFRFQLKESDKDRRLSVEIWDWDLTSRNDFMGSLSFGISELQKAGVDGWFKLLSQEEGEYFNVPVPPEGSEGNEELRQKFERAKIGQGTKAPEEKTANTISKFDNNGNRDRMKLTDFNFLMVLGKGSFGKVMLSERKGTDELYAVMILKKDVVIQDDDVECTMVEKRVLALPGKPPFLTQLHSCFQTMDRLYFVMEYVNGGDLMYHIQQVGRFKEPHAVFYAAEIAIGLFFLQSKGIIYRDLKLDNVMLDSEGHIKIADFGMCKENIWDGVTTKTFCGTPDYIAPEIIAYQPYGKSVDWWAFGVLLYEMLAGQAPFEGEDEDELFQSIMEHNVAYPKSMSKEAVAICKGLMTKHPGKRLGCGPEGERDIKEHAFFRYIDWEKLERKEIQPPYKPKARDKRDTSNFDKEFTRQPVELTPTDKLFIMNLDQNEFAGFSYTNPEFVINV

- effect of a mutation on the interaction: with no effect
Substance: Protein kinase C beta type (Rattus norvegicus (Rat)), P68403-1 K371M
